Experimental data reported in IntAct's records for PubMed 21037004.

B1: Protein-export protein SecB (Escherichia coli (strain K12)), P0AG86 (parent)
chain: MSEQNNTEMTFQIQRIYTKDISFEAPNAPHVFQKDWQPEVKLDLDTASSQLADDVYEVVLRVTVTASLGEETAFLCEVQQGGIFSIAGIEGTQMAHCLGAYCPNILFPYARECITSMVSRGTFPQLNLAPVNFDALFMNYLQQQAGEGTEEHQDA

Variants of: B1
Settings: with seca_ecoli secA

Row | Variant | effect of a mutation on the interaction
1 | T92C | increasing interaction strength
2 | S85C | increasing interaction strength
3 | E147C | increasing interaction strength
4 | Q33C | increasing interaction strength
5 | D43C | increasing interaction strength
6 | D35C | increasing interaction strength
7 | G146E | increasing interaction strength
8 | L141C | increasing interaction strength
9 | T46C | increasing interaction strength
10 | L126C | increasing interaction strength
11 | Q14C | increasing interaction strength
12 | Q143C | increasing interaction strength
13 | A87C | increasing interaction strength
14 | T149C | increasing interaction strength
15 | E150C | increasing interaction strength
16 | T65C | increasing interaction strength
17 | L136C | increasing interaction strength
18 | A155C | increasing interaction strength
19 | Q50C | increasing interaction strength
20 | D45C | increasing interaction strength
21 | E24C | increasing interaction strength
